Molecular target: T1, complement C5 (human, UniProt P01031 19-673; P01031 678-1676)
T1 construct: also called human C5; source: endogenous, human serum
Assay: cryo-EM structure
Details: both partners purified

T1 sequence (P01031 19-673, chain 1 of 2): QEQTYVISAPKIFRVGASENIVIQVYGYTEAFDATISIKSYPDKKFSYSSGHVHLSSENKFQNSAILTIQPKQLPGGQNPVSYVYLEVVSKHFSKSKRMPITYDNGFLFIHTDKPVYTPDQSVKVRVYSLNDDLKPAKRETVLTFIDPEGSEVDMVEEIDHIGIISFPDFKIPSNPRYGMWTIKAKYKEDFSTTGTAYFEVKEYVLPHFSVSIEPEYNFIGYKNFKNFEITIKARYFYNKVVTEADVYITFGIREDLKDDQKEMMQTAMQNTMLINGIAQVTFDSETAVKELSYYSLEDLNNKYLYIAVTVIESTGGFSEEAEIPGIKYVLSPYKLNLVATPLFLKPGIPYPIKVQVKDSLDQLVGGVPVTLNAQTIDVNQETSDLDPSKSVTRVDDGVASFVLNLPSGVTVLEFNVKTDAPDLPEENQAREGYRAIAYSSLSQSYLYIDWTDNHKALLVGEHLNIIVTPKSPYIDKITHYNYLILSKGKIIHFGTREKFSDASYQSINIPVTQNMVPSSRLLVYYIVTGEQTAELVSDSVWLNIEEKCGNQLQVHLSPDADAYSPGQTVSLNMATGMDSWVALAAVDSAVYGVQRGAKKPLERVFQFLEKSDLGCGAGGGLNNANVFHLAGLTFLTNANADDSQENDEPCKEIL
T1 sequence (P01031 678-1676, chain 2 of 2): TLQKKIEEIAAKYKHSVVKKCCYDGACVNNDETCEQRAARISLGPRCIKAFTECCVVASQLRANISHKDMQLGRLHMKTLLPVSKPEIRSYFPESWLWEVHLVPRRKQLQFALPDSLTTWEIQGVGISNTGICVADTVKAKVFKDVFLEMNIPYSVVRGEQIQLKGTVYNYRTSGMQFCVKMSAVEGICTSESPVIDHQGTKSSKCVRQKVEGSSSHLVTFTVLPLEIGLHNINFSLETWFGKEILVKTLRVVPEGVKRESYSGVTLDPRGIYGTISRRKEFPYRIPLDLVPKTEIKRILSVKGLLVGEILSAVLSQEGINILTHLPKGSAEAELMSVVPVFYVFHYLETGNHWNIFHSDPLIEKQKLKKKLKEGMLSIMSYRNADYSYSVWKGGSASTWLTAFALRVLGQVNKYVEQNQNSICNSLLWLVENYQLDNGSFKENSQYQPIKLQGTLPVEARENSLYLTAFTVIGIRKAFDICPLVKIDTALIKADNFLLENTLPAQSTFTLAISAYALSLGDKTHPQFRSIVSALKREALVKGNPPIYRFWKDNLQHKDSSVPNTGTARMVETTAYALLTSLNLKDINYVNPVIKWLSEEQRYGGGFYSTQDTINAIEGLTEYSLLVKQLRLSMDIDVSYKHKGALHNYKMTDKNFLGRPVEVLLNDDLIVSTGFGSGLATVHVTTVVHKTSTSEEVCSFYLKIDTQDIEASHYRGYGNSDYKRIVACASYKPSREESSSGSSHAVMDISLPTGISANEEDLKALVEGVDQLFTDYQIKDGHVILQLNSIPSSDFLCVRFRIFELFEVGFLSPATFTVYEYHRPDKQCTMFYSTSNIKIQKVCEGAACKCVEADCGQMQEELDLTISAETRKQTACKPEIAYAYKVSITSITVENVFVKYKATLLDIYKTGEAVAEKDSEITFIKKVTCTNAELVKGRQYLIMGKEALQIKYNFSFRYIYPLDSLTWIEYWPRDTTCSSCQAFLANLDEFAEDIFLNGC

B1: OmCI (natural protein)
chain: DSESDCTGSEPVDAFQAFSEGKEAYVLVRSTDPKARDCLKGEPAGEKQDNTLPVMMTFKNGTDWASTDWTFTLDGAKVTATLGNLTQNREVVYDSQSHHCHVDKVEKEVPDYEMWMLDAGGLEVEVECCRQKLEELASGRNQMYPHLKDC
notes: also called Coversin; His-tagged OmCI
Does B1 bind?
Result: binds

Source: article doi:10.1101/647354 (bioRxiv, 2019)
